These results are taken from patent US5756454.

The target of experiment [1] is collagen receptor on human platelets (human).
For experiment [2] the target is unchanged. This is another data set of the same source.
Experiment [3] concerns the target thrombin.
The target of experiment [4] is collagen receptor on human platelets (human). This is another data set of the same source.
Experiment [5] has as its target collagen receptor (VL A 2) on MTLn3 cells (rat mammary tumor cells) (rat).
Experiment [6] has the same target. The source holds these as a separate data set.
Experiment [7] has as its target collagen receptor on human platelets (human). This is another data set of the same source.

“collagen-induced platelet aggregation inhibitor isolated from saliva of Triatoma pallidipennis” had an adherent platelets per mm^2 on collagen type I (50 µl of "Superose"-pool at 0.5 mg protein/ml; 13500 without inhibitor) (adherent platelets per mm^2) in experiment [1] of 6500. Besides, in experiment [2], the released ATP, % of total ATP content, of collagen-treated platelets (30 µl = 10 µg protein of "Superose"-pool; 49% without inhibitor) (% of total ATP content) was determined as 2. Also, the maximal aggregation of filtrated platelets induced with thrombin (0.06 U/ml), with 200 µl "Superose"-pool (control 75%) (% maximal aggregation) in experiment [3] was determined as 75. In experiment [4], this substance displayed an IC50 of inhibition of collagen-induced platelet aggregation (highly purified protein) of 0.05 µM and an IC50 of inhibition of collagen-induced platelet aggregation (partially purified "Superose"-pool) of 2.5 µg per ml. The substance also had a cell attachment (cpm) of 51Cr-labelled MTLn3 cells to collagen type III (10 µl of "Superose"-pool; 2215 cpm without inhibitor) in experiment [5] of 1080 cpm. For the same substance, the IC50 of adhesion-inhibition of metastatic tumor cells to collagen (highly purified protein) in experiment [6] amounted to 0.1 µM. Besides, the inhibition of collagen-induced aggregation of human platelets (platelet-rich plasma, aggregometer; "Superose"-pool) (% inhibition of aggregation) in experiment [7] was 70.
